This experiment relates to steviol glycoside. Briefly: steviol glycoside bioconversion by E. coli expressing individual mutations of UGT SEQ ID NO: 14. It counts as cell-based. To be noted: fold improvement of % conversion vs parent UGT SEQ ID NO: 14; stevia leaf extract and glucose fed; 37° C., 48 hr. The method, then:
Fold improvement is with respect to % steviol glycoside conversion of the parent UGT enzyme of SEQ ID NO: 14. The UGT enzyme of SEQ ID NO: 15 has the following mutations from SEQ ID NO: 14: ins_A2_T3_RR, H59P, A238E, L417F. Stevia leaf extract and glucose were fed to the bioconversion strains. Bioconversion took place at 37° C. for 48 hr. Data were quantified by reverse phase LC DAD to quantify conversion of steviol glycosides.
Fold improvement (FI) is with respect to % steviol glycoside conversion.

B1: ins_A2_T3_RR: SEQ ID NO: 14 with insertion of Arg-Arg between A2 and T3 (protein)
chain: MARRTKNSSGMSLAERFWLTLSRSSLVVGRSCVEFEPETVPLLSTLRGKPITFLGLMPPLHEGRREDGEDATVRWLDAQPAKSVVYVALGSEVPLGVEKVHELALGLELAGTRFLWALRKPTGVSDADLLPAGFEERTRGRGVVATRWVPQMSILAHAAVGAFLTHCGWNSTIEGLMFGHPLIMLPITGDQGPNARLIEAKNAGLQVARNDGDGSFDREGVAAAIRAVAVEEESSKVFQAKAKKLQEIVADMACHERYIDGFIQQLRSYKDDSGYSSSYAAAAGMHVVICPWLAFGHLLPCLDLAQRLASRGHRVSFVSTPRNISRLPPVRPALAPLVAFVALPLPRVEGLPDGAESTNDVPHDRPDMVELHRRAFDGLAAPFSEFLGTACADWVIVDSFHHWAAAAALEHKVPCAMMLLGSAEMIASIADERLEHAETESPAAAGQGRPAAAPTFEVARMKLIR
Regarding B1, the “FI %Stevioside→rebE” value is on record as 2.4 and the “FI %rebA→rebD” value was 2.0.

B2: G94T: mutation to UGT enzyme of SEQ ID NO: 14 (protein)
chain: MATKNSSGMSLAERFWLTLSRSSLVVGRSCVEFEPETVPLLSTLRGKPITFLGLMPPLHEGRREDGEDATVRWLDAQPAKSVVYVALGSEVPLTVEKVHELALGLELAGTRFLWALRKPTGVSDADLLPAGFEERTRGRGVVATRWVPQMSILAHAAVGAFLTHCGWNSTIEGLMFGHPLIMLPITGDQGPNARLIEAKNAGLQVARNDGDGSFDREGVAAAIRAVAVEEESSKVFQAKAKKLQEIVADMACHERYIDGFIQQLRSYKDDSGYSSSYAAAAGMHVVICPWLAFGHLLPCLDLAQRLASRGHRVSFVSTPRNISRLPPVRPALAPLVAFVALPLPRVEGLPDGAESTNDVPHDRPDMVELHRRAFDGLAAPFSEFLGTACADWVIVDSFHHWAAAAALEHKVPCAMMLLGSAEMIASIADERLEHAETESPAAAGQGRPAAAPTFEVARMKLIR
Consider B2, for which the “FI %Stevioside→rebE” value is on record as 1.6 and the “FI %rebA→rebD” value is given as 1.4.

B3: T186M: mutation to UGT enzyme of SEQ ID NO: 14 (protein)
chain: MATKNSSGMSLAERFWLTLSRSSLVVGRSCVEFEPETVPLLSTLRGKPITFLGLMPPLHEGRREDGEDATVRWLDAQPAKSVVYVALGSEVPLGVEKVHELALGLELAGTRFLWALRKPTGVSDADLLPAGFEERTRGRGVVATRWVPQMSILAHAAVGAFLTHCGWNSTIEGLMFGHPLIMLPIMGDQGPNARLIEAKNAGLQVARNDGDGSFDREGVAAAIRAVAVEEESSKVFQAKAKKLQEIVADMACHERYIDGFIQQLRSYKDDSGYSSSYAAAAGMHVVICPWLAFGHLLPCLDLAQRLASRGHRVSFVSTPRNISRLPPVRPALAPLVAFVALPLPRVEGLPDGAESTNDVPHDRPDMVELHRRAFDGLAAPFSEFLGTACADWVIVDSFHHWAAAAALEHKVPCAMMLLGSAEMIASIADERLEHAETESPAAAGQGRPAAAPTFEVARMKLIR
On to B3, for which the “FI %Stevioside→rebE” value is 1.5 and the “FI %rebA→rebD” value worked out at 1.4.

B4: F51W: mutation to UGT enzyme of SEQ ID NO: 14 (protein)
chain: MATKNSSGMSLAERFWLTLSRSSLVVGRSCVEFEPETVPLLSTLRGKPITWLGLMPPLHEGRREDGEDATVRWLDAQPAKSVVYVALGSEVPLGVEKVHELALGLELAGTRFLWALRKPTGVSDADLLPAGFEERTRGRGVVATRWVPQMSILAHAAVGAFLTHCGWNSTIEGLMFGHPLIMLPITGDQGPNARLIEAKNAGLQVARNDGDGSFDREGVAAAIRAVAVEEESSKVFQAKAKKLQEIVADMACHERYIDGFIQQLRSYKDDSGYSSSYAAAAGMHVVICPWLAFGHLLPCLDLAQRLASRGHRVSFVSTPRNISRLPPVRPALAPLVAFVALPLPRVEGLPDGAESTNDVPHDRPDMVELHRRAFDGLAAPFSEFLGTACADWVIVDSFHHWAAAAALEHKVPCAMMLLGSAEMIASIADERLEHAETESPAAAGQGRPAAAPTFEVARMKLIR
With B4, the “FI %Stevioside→rebE” value is recorded as 1.7 and the “FI %rebA→rebD” value was found to be 1.4.

B5: L58S: mutation to UGT enzyme of SEQ ID NO: 14 (protein)
chain: MATKNSSGMSLAERFWLTLSRSSLVVGRSCVEFEPETVPLLSTLRGKPITFLGLMPPSHEGRREDGEDATVRWLDAQPAKSVVYVALGSEVPLGVEKVHELALGLELAGTRFLWALRKPTGVSDADLLPAGFEERTRGRGVVATRWVPQMSILAHAAVGAFLTHCGWNSTIEGLMFGHPLIMLPITGDQGPNARLIEAKNAGLQVARNDGDGSFDREGVAAAIRAVAVEEESSKVFQAKAKKLQEIVADMACHERYIDGFIQQLRSYKDDSGYSSSYAAAAGMHVVICPWLAFGHLLPCLDLAQRLASRGHRVSFVSTPRNISRLPPVRPALAPLVAFVALPLPRVEGLPDGAESTNDVPHDRPDMVELHRRAFDGLAAPFSEFLGTACADWVIVDSFHHWAAAAALEHKVPCAMMLLGSAEMIASIADERLEHAETESPAAAGQGRPAAAPTFEVARMKLIR
Turning to B5, the “FI %Stevioside→rebE” value was 1.5 and the “FI %rebA→rebD” value came to 1.4.

B6: V336I_F338L: mutation to UGT enzyme of SEQ ID NO: 14 (protein)
chain: MATKNSSGMSLAERFWLTLSRSSLVVGRSCVEFEPETVPLLSTLRGKPITFLGLMPPLHEGRREDGEDATVRWLDAQPAKSVVYVALGSEVPLGVEKVHELALGLELAGTRFLWALRKPTGVSDADLLPAGFEERTRGRGVVATRWVPQMSILAHAAVGAFLTHCGWNSTIEGLMFGHPLIMLPITGDQGPNARLIEAKNAGLQVARNDGDGSFDREGVAAAIRAVAVEEESSKVFQAKAKKLQEIVADMACHERYIDGFIQQLRSYKDDSGYSSSYAAAAGMHVVICPWLAFGHLLPCLDLAQRLASRGHRVSFVSTPRNISRLPPVRPALAPLIALVALPLPRVEGLPDGAESTNDVPHDRPDMVELHRRAFDGLAAPFSEFLGTACADWVIVDSFHHWAAAAALEHKVPCAMMLLGSAEMIASIADERLEHAETESPAAAGQGRPAAAPTFEVARMKLIR
Take B6: the “FI %Stevioside→rebE” value was determined as 1.5 and the “FI %rebA→rebD” value amounted to 1.4.

B7: M250D_A251E_C252V: mutation to UGT enzyme of SEQ ID NO: 14 (protein)
chain: MATKNSSGMSLAERFWLTLSRSSLVVGRSCVEFEPETVPLLSTLRGKPITFLGLMPPLHEGRREDGEDATVRWLDAQPAKSVVYVALGSEVPLGVEKVHELALGLELAGTRFLWALRKPTGVSDADLLPAGFEERTRGRGVVATRWVPQMSILAHAAVGAFLTHCGWNSTIEGLMFGHPLIMLPITGDQGPNARLIEAKNAGLQVARNDGDGSFDREGVAAAIRAVAVEEESSKVFQAKAKKLQEIVADDEVHERYIDGFIQQLRSYKDDSGYSSSYAAAAGMHVVICPWLAFGHLLPCLDLAQRLASRGHRVSFVSTPRNISRLPPVRPALAPLVAFVALPLPRVEGLPDGAESTNDVPHDRPDMVELHRRAFDGLAAPFSEFLGTACADWVIVDSFHHWAAAAALEHKVPCAMMLLGSAEMIASIADERLEHAETESPAAAGQGRPAAAPTFEVARMKLIR
With B7, the “FI %Stevioside→rebE” value worked out at 1.5 and the “FI %rebA→rebD” value was determined as 1.4.

The record behind these values is patent US20260242839A1, “GLYCOSIDE PRODUCT BIOSYNTHESIS AND RECOVERY” (Manus Bio Inc., priority 2023, published 2026).
